According to PMC10482962, “Structural and functional analysis of aquaporin-2 mutants involved in nephrogenic diabetes insipidus” (Scientific Reports, 2023):

Experiments:
[1] = molecular target: the molecule itself; test: SEC; size-exclusion chromatography of the purified protein immediately prior to reconstitution into liposomes; peak integrals quantified in % of the total population to estimate the oligomeric states
[2] = size-exclusion chromatography; conditions: glycan lost; control: wild-type AQP2 (same construct)

Protein	stoichiometry N [1]	oligomerisation [2]
human aquaporin-2 (AQP2), truncated after residue 242 (domain or fragment, UniProt P41181 1-242, looked up, aquaporin-2 (AQP2), human, C-terminal truncation at P242; the construct used for the structure PDB 4NEF; His-tag removed by TEV protease before SEC; also called wild-type AQP2; hAQP2; source: Pichia pastoris X33, purified (IMAC, TEV cleavage, second IMAC, SEC); not shown: His8, N-terminal, cleaved) MWELRSIAFSRAVFAEFLATLLFVFFGLGSALNWPQALPSVLQIAMAFGLGIGTLVQALGHISGAHINPAVTVACLVGCHVSVLRAAFYVAAQLLGAVAGAALLHEITPADIRGDLAVNALSNSTTAGQAVTVELFLTLQLVLCIFASTDERRGENPGTPALSIGFSVALGHLLGIHYTGCSMNPARSLAPAVVTGKFDDHWVFWIGPLVGAILGSLLYNYVLFPPAKSLSERLAVLKGLEP	4	
human aquaporin-2 (AQP2) T125M, truncated after residue 242 (domain or fragment, UniProt P41181 1-242, looked up, aquaporin-2 (AQP2), human, C-terminal truncation at P242, with the recessive NDI patient mutation T125M; Mutation identified in patients with autosomal recessive NDI; same construct limits as m1; source: Pichia pastoris X33, purified (IMAC, TEV cleavage, second IMAC, SEC); not shown: His8, N-terminal, cleaved) MWELRSIAFSRAVFAEFLATLLFVFFGLGSALNWPQALPSVLQIAMAFGLGIGTLVQALGHISGAHINPAVTVACLVGCHVSVLRAAFYVAAQLLGAVAGAALLHEITPADIRGDLAVNALSNSMTAGQAVTVELFLTLQLVLCIFASTDERRGENPGTPALSIGFSVALGHLLGIHYTGCSMNPARSLAPAVVTGKFDDHWVFWIGPLVGAILGSLLYNYVLFPPAKSLSERLAVLKGLEP	4	
aquaporin-2 (AQP2): T125M (protein) parent chain: MWELRSIAFSRAVFAEFLATLLFVFFGLGSALNWPQALPSVLQIAMAFGLGIGTLVQALGHISGAHINPAVTVACLVGCHVSVLRAAFYVAAQLLGAVAGAALLHEITPADIRGDLAVNALSNSTTAGQAVTVELFLTLQLVLCIFASTDERRGENPGTPALSIGFSVALGHLLGIHYTGCSMNPARSLAPAVVTGKFDDHWVFWIGPLVGAILGSLLYNYVLFPPAKSLSERLAVLKGLEPDTDWEEREVRRRQSVELHSPQSLPRGTKA		no change
